Reference: the Human Domainome abundance scans (Beltran et al. 2025)
± gives the uncertainty stated by the source.

B1: Ankyrin-2, residues 3571 to 3650; numbered along this chain, Q01484 (parent)
chain: ERLAYIADHLGFSWTELARELDFTEEQIHQIRIENPNSLQDQSHALLKYWLERDGKHATDTNLVECLTKINRMDIVHLME

Variants of: B1
Assay: abundance fitness (aPCA) (normalised: wild type 0, dead -1); higher = more abundant; growth selection in yeast, the domain comes from the species named
Conditions: Homo sapiens

Variant	abundance fitness
R32L	-0.034 ± 0.068
R32K	0.177 ± 0.22
R32E	0.058 ± 0.17
R32S	-0.059 ± 0.061
R32F	-0.088 ± 0.17
R32C	-0.074 ± 0.16
R32D	-0.073 ± 0.18
R32I	-0.339 ± 0.22
R32M	-0.065 ± 0.13
R32H	0.034 ± 0.097
R32Y	-0.384 ± 0.2
R32Q	0.081 ± 0.079
R32W	-0.25 ± 0.22
R32A	-0.096 ± 0.069
R32P	-0.293 ± 0.047
R32N	-0.206 ± 0.15
R32T	-0.127 ± 0.082
R32G	-0.05 ± 0.067
L47A	-0.191 ± 0.065
N35F	-0.091 ± 0.14
N35A	-0.066 ± 0.066
N35S	-0.093 ± 0.051
N35M	-0.03 ± 0.086
N35Y	-0.07 ± 0.17

Variant	abundance fitness
N35I	-0.087 ± 0.11
N35D	-0.296 ± 0.17
N35T	-0.071 ± 0.08
N35R	-0.033 ± 0.048
N35W	-0.049 ± 0.065
N35V	-0.084 ± 0.059
N35H	-0.118 ± 0.21
N35Q	0.066 ± 0.08
N35C	-0.053 ± 0.084
N35L	-0.128 ± 0.067
N35K	-0.042 ± 0.12
N35E	-0.043 ± 0.088
Q40A	-0.104 ± 0.15
Q40R	-0.07 ± 0.08
Q40I	-0.124 ± 0.3
Q40C	-0.16 ± 0.13
Q40G	-0.146 ± 0.095
Q40L	-0.171 ± 0.095
Q40W	-0.065 ± 0.095
Q40P	-0.045 ± 0.097
Q40S	-0.069 ± 0.075
Q40E	0.051 ± 0.18
Q40T	-0.033 ± 0.13
Q40D	0.117 ± 0.25

Variant	abundance fitness
L46P	-0.885 ± 0.42
L46G	-0.574 ± 0.1
L46T	-0.127 ± 0.2
L46Y	-0.336 ± 0.26
L46W	0.141 ± 0.48
L46V	-0.075 ± 0.46
L46A	0.143 ± 0.2
L46C	0.184 ± 0.37
N37A	0.043 ± 0.074
N37R	-0.068 ± 0.052
N37D	-0.015 ± 0.21
N37K	-0.074 ± 0.13
N37G	-0.028 ± 0.048
N37M	0.099 ± 0.099
N37H	-0.021 ± 0.17
N37S	-0.031 ± 0.053
N37W	-0.091 ± 0.082
N37L	-0.067 ± 0.057
N37I	-0.01 ± 0.17
N37T	-0.093 ± 0.088
N37Q	-0.069 ± 0.091
N37Y	-0.171 ± 0.15
N37C	-0.064 ± 0.1
N37P	-0.249 ± 0.082

Variant	abundance fitness
N37F	-0.003 ± 0.24
I33V	-0.04 ± 0.071
I33N	-0.223 ± 0.12
I33T	-0.022 ± 0.096
I33W	-0.073 ± 0.098
I33E	0.039 ± 0.082
I33K	0.058 ± 0.11
I33Q	0.003 ± 0.13
I33G	-0.047 ± 0.066
I33R	0.011 ± 0.055
I33L	-0.087 ± 0.052
I33D	-0.105 ± 0.14
I33Y	-0.027 ± 0.15
I33H	-0.096 ± 0.17
I33M	0.011 ± 0.11
I33A	-0.034 ± 0.07
I33F	-0.019 ± 0.18
I33C	-0.002 ± 0.11
I33P	-0.912 ± 0.12
Q30W	-0.209 ± 0.078
Q30A	-0.082 ± 0.058
Q30D	-0.183 ± 0.15
Q30T	-0.023 ± 0.079
Q30S	-0.081 ± 0.063

Variant	abundance fitness
Q30P	-0.825 ± 0.071
Q30V	-0.073 ± 0.082
Q30E	0.005 ± 0.12
Q30N	-0.128 ± 0.18
Q30H	-0.045 ± 0.13
Q30K	-0.112 ± 0.15
Q30I	-0.076 ± 0.11
Q30G	-0.079 ± 0.065
Q30M	0.008 ± 0.27
Q30F	-0.023 ± 0.1
Q30C	-0.044 ± 0.1
Q30L	-0.052 ± 0.058
Q30R	0 ± 0.048
P36L	-0.081 ± 0.061
P36T	-0.052 ± 0.087
P36W	-0.074 ± 0.067
P36K	-0.125 ± 0.1
P36N	0.253 ± 0.43
P36M	-0.017 ± 0.12
P36Q	-0.123 ± 0.091
P36G	-0.045 ± 0.047
P36I	-0.805 ± 0.44
P36F	-0.08 ± 0.18
P36C	-0.123 ± 0.1

Variant	abundance fitness
P36Y	-0.221 ± 0.13
P36R	-0.076 ± 0.047
P36H	-0.202 ± 0.2
P36S	-0.117 ± 0.063
P36D	-0.031 ± 0.16
P36E	-0.044 ± 0.23
P36V	-0.14 ± 0.066
E34F	-0.25 ± 0.13
E34D	-0.129 ± 0.18
E34V	-0.021 ± 0.051
E34N	-0.048 ± 0.13
E34C	-0.413 ± 0.27
E34T	-0.049 ± 0.069
E34W	-0.022 ± 0.33
E34L	-0.054 ± 0.049
E34K	-0.045 ± 0.16
E34I	-0.042 ± 0.15
E34Q	0.085 ± 0.1
E34A	-0.048 ± 0.063
E34H	-0.048 ± 0.14
E34P	-0.678 ± 0.093
E34R	0.018 ± 0.047
E34S	-0.018 ± 0.049
E34Y	-0.148 ± 0.13

Variant	abundance fitness
E34G	-0.058 ± 0.057
I28V	-0.056 ± 0.066
I28F	-0.792 ± 0.18
I28L	-0.05 ± 0.052
I28E	-0.171 ± 0.067
I28G	-0.634 ± 0.064
I28H	-0.668 ± 0.14
I28N	-0.301 ± 0.14
I28S	-0.203 ± 0.073
I28R	-0.22 ± 0.056
I28M	-0.064 ± 0.13
I28Y	-0.225 ± 0.12
I28D	-0.895 ± 0.17
I28K	-0.633 ± 0.32
I28T	-0.1 ± 0.12
I28P	-0.833 ± 0.12
I28Q	-0.179 ± 0.093
I28A	-0.215 ± 0.078
H44V	0.085 ± 0.098
H44N	0.051 ± 0.16
H44R	-0.226 ± 0.12
H44A	0.028 ± 0.12
H44W	-0.152 ± 0.11
